Changes are numbered by the printed parent chain.
T1: human IL-8 (human, UniProt P10145 28-99, limits assumed)
T1 sequence (looked up): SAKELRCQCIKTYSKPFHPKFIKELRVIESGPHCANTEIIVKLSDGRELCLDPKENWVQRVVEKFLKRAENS

T2: human GCP-2 (human, UniProt P80162 38-114, limits assumed)
T2 sequence (looked up): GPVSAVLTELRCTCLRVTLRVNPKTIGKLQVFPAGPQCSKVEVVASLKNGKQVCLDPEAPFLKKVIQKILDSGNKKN

T3: human Gro-beta (human, UniProt P19875 35-107)
T3 sequence (looked up): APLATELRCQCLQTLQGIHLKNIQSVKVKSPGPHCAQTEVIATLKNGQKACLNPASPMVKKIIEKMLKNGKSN

T4: human NAP2 (human, UniProt P02775 59-128)
T4 sequence (looked up): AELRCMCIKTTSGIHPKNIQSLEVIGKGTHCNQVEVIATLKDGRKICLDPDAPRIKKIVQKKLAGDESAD

T5: human ENA-78 (human, UniProt P42830 37-114, limits assumed)
T5 sequence (looked up): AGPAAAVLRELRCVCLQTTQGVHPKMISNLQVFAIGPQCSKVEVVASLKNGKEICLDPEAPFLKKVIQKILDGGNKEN

T6: human Gro-gamma (human, UniProt P19876 35-107)
T6 sequence (looked up): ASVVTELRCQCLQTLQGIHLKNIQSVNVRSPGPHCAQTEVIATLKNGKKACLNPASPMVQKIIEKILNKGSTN

T7: human Gro-alpha (human, UniProt P09341 35-107)
T7 sequence (looked up): T3 sequence (looked up) with P2S, L3V, L20P, K27N, Q48R, M58I, K68N, N69S, G70D

B1: 1L132.23 (antibody, IgG1, V domains shown)
VH: QVQLQQPGAELVKPGASVKVSCKASGYTFTNYWMHWVRQRPGQGLEWIGRIHPSDNDTNYNQKFKDKATLTVDKSSNTAYMQLSSLTSEDSAVYYCAIGVYDGFIGLWGQGTSVTVSS
VL: DIQMTQSPASQSASLGESVTITCLASQTIGTWLAWYQQKPGKSPQLLIYAATRLADGVPSRFSGSGSGTKFSFKISSLQAEDFVSYYCQQLSSTPWTFGGGTKLEIK
B2: 9D12.1H4 (antibody, IgG1, V domains shown)
VH: EVQLQQSGPELVKPGASVRMSCKASGNTVIDYNIHWVKQSQGKSLEWIGYINPNSGGTGYNEKFKDKATLTINKSSSTAHMDLRSLTSEDSAVYYCTRFDFWGQGTTLTVSS
VL: DVLMTQTPLSLPVSLGDQASISCRSTQSIVPVNGNTHLEWYLHKPGQSPKLLIYKVSNRFSGVPDRFSGSGSGTDFTLKISRVEAEDLGVYYCFQASHVPWTFGGGTKLEIK
B3: 2X907.15 (antibody, IgG1, V domains shown)
VH: EVKLVESGGGLVKPGGSLKLSCAASGFTFSDYYMYWVRQSPEKRLEWVATVSDVGSYTYYSGSVRGRFTISRDNAKNNLYLQMSSLQSEDTAIYYCSRDRTLDYWGQGTSVIVTS
VL: QIVLTQSPAIMSASPGEKVTITCNASSSVSYMHWFQQKPGTSPKLWIYSTSNLASGVPARFSGSGSGTSYSLTISRMEAEDAATYYCHQRSSFPPTFGGGTKLEIK
B4: 7A12.1F10 (antibody, IgG1, V domains shown)
VH: QVQLQQSGAELVKPGASVKLSCKASGYIFTSNDINWVRQRPEQGLEWIGWIFPGDNSTKFNEKFRDKATLTTDKSSSTAYMQLSGLTSEDSAVYFCATFYGSTYGYYFDYWGQGTTLTVSS
VL: DIVMTQSHKFMSTSVGDRVSITCKASQDVGTAVAWYQQKPGQSPKLLIYWTDTRHTGVPDRFTGSGSGTDFTLTISNVESEDCVDYFCHQYNNYPLTFGAGTKLELK
B5: 2B12.1E1 (antibody, IgG2c, V domains shown)
VH: EVQLQQSGPELVKPGASVKISCKASGYTFTDYYMNWVKQSHGKSLEWIGDINPNNGNTNYNQKFKGKATLTVDKSSSTAYMEFRSLTSEDSAVYYCAGLGRIFDYWGQGTTLTVSS
VL: ENVLTQSPAIMSASPGEKVTMTCRASSSVSSTFLHWYQQKSGASPKLWIYSTSDLASGVPARFSGSGSGTSYSLTISSVEAEDAATYYCQQYSGYPWTFGGGTKLEIK
B6: 1L351.17 (antibody, IgG2b, V domains shown)
VH: QAYLQQSGAELVRPGASVKMSCKASGYTFTSYNMHWVKQTPRQGLEWIGAIYPGNGDTSYNQKFKGKATLTVDKSSSTAYMQLSSLTSEDSAVYFCARDLYYFDYWGQGTTLTVSS
VL: B5 VL with S14F, F33Y, Y92F
B7: 17D1.1D2 (antibody, IgG2c, V domains shown)
VH: B5 VH with V37L, K38R, N57G, G66N, F83L, Y94F
VL: B5 VL with S14F, F33Y, Y92F
B8: 2X810.3 (antibody, IgG1, V domains shown)
VH: QIQLQQSGPEVVKPGASVKISCKASGYIFTDNYIDWVQQRPGQGLEWIGWIFPGSGNTKYNEKFKGKATLTVDTFSSTAYMQLSSLTSEDTAVYFCAREIDYDYDGFFDVWGAGTTVTVSS
VL: DIVMTPSHTFMSTSVGDRVIITSKASQDVGSAVAWYQQKPGQSPTLLIYWASTRHTGVPDRFTGSGSGTDFTLTISNLQSEDLADYFCQQYSTYPLTFGAGTKLELK
B9: 1A1.4C6 (antibody, IgG1, V domains shown)
VH: EVQLQQSGPELVKPGASVKISCKASGYTFIDYYMNWVKQSQGKSLEWIGDVNPDDGDTTYNQQFKDKATLTVDKSSSTAYMELRSLTSEDSAVYYCARDDRTSGYFDVWGTGTTVTVSS
VL: DIQMTQSTSSLSASLGDRVTISCRASQDIRNYLNWFQQKPDGTVKLLIYYTSIVHSRVPSRFSGSGSGTDYSLTINNLDQEDIATYFCQQANTLPWTFGGGTKLETK
B10: 2X352.3 (antibody, IgG1, V domains shown)
VH: QIQLVQSGPELKKPGETVKISCKASGYTLTYYGIHWVTQTPGKGLNWMGWINTNTGEPTYVEEFKGRFAFSLETSASTAYLQITDLKNEDTATYFCAKATYDGYSDYWGQGTTLTVSS
VL: DIQMTQSPASLSVSVGESVTITCRASENIYSNLAWYQQKQGKSPQLLVYDATNLAHGVPSRFSGSGSGTQFSLRINSLQSEDFGSYYCQHFWGTPLTFGAGTRLELK
B11: 5D2.2D10 (antibody, V domains shown)
VH: QIQLVQSGPELKKPGETVKISCKASGYIFTAYGMSWVKQAPGKGLKWMGWINTYSGVPTYADHFKGRFDFSLETSASTAYLQINNLKNEDTATYFCARPTVVDPWYFDVWGTGTTVTVSS
VL: DIQMTQSPASLSVSVGETVTITCRASENIYSNLAWYQQKQGKSPQLLVYAATNLGDGVPSRFSGSGSGTQYSLKINSLQSEDFGSYYCQHFWTTPWTFGGGTKLEIK

target: T1, human IL-8; assay: cell-based or functional assay

| Binder | FLIPR IC50 |
| --- | --- |
| B1 | > 67 µg/mL |
| B2 | 3.4 µg/mL |
| B3 | > 67 µg/mL |
| B4 | > 200 µg/mL |
| B5 | 1.6 µg/mL |
| B6 | > 67 µg/mL |
| B7 | 2.5 µg/mL |
| B8 | > 67 µg/mL |
| B9 | > 200 µg/mL |
| B10 | > 67 µg/mL |
| B11 | > 200 µg/mL |

target: T2, human GCP-2; assay: cell-based or functional assay

| Binder | FLIPR IC50 |
| --- | --- |
| B1 | > 67 µg/mL |
| B2 | 6.6 µg/mL |
| B3 | > 67 µg/mL |
| B4 | 124 µg/mL |
| B5 | 40.9 µg/mL |
| B6 | > 67 µg/mL |
| B7 | > 200 µg/mL |
| B8 | 24.6 µg/mL |
| B9 | 11.2 µg/mL |
| B10 | > 67 µg/mL |
| B11 | > 200 µg/mL |

target: T3, human Gro-beta; assay: cell-based or functional assay

| Binder | FLIPR IC50 |
| --- | --- |
| B1 | 0.69 µg/mL |
| B2 | > 67 µg/mL |
| B3 | > 67 µg/mL |
| B4 | > 200 µg/mL |
| B5 | > 65.5 µg/mL |
| B6 | 1.02 µg/mL |
| B7 | 81.6 µg/mL |
| B8 | > 67 µg/mL |
| B9 | > 168 µg/mL |
| B10 | 1.12 µg/mL |
| B11 | 77.4 µg/mL |

target: T4, human NAP2; assay: cell-based or functional assay

| Binder | FLIPR IC50 |
| --- | --- |
| B1 | > 67 µg/mL |
| B2 | > 67 µg/mL |
| B3 | > 67 µg/mL |
| B4 | > 200 µg/mL |
| B5 | > 67 µg/mL |
| B6 | > 67 µg/mL |
| B7 | > 200 µg/mL |
| B8 | > 67 µg/mL |
| B9 | 123 µg/mL |
| B10 | > 67 µg/mL |
| B11 | > 200 µg/mL |

target: T5, human ENA-78; assay: cell-based or functional assay

| Binder | FLIPR IC50 |
| --- | --- |
| B1 | > 67 µg/mL |
| B2 | 14.4 µg/mL |
| B3 | 2.6 µg/mL |
| B4 | 2.4 µg/mL |
| B5 | > 67 µg/mL |
| B6 | > 67 µg/mL |
| B7 | > 200 µg/mL |
| B8 | 14.6 µg/mL |
| B9 | 12.3 µg/mL |
| B10 | 4.99 µg/mL |
| B11 | 4.7 µg/mL |

target: T6, human Gro-gamma; assay: cell-based or functional assay

| Binder | FLIPR IC50 |
| --- | --- |
| B1 | > 67 µg/mL |
| B2 | > 67 µg/mL |
| B3 | > 67 µg/mL |
| B4 | > 200 µg/mL |
| B5 | > 67 µg/mL |
| B6 | 3.17 µg/mL |
| B7 | 144 µg/mL |
| B8 | > 67 µg/mL |
| B9 | 19.2 µg/mL |
| B10 | 7.43 µg/mL |
| B11 | > 200 µg/mL |

target: T7, human Gro-alpha; assay: cell-based or functional assay

| Binder | FLIPR IC50 |
| --- | --- |
| B1 | > 67 µg/mL |
| B2 | > 67 µg/mL |
| B3 | > 67 µg/mL |
| B4 | 9.9 µg/mL |
| B5 | > 67 µg/mL |
| B6 | 1.92 µg/mL |
| B7 | > 146 µg/mL |
| B8 | > 67 µg/mL |
| B9 | 2.4 µg/mL |
| B10 | 2.06 µg/mL |
| B11 | > 200 µg/mL |
